According to patent publication US20250368745A1 (published 2025):

Columns and labels:
[1] = biological target: T1, human IL-18BP (human, UniProt O95998 31-194); test: BLI, apparent KD
T1 construct: UniProt printed as 095998; also called hIL-18BP
T1 sequence: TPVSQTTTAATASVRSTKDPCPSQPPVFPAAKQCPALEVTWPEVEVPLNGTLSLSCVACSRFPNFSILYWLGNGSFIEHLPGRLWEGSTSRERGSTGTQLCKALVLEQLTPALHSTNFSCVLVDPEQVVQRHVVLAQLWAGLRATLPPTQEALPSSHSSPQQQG

[2] = biological target: T2, cynomolgus IL-18BP (cynomolgus monkey); test: BLI, apparent KD
T2 construct: also called cyno IL-18BP; cyIL-18BP
T2 chain: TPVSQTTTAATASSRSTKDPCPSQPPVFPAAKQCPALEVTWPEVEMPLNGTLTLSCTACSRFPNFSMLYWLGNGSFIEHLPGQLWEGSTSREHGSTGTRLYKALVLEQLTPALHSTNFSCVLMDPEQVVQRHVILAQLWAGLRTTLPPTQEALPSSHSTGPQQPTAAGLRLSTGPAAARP

[3] = biological target: T3, human IL-18BP (human, UniProt O95998 31-194); test: BLI, apparent KD, one conc.
T3 construct: also called hIL-18BP; Mature Human Isoform A
T3 sequence: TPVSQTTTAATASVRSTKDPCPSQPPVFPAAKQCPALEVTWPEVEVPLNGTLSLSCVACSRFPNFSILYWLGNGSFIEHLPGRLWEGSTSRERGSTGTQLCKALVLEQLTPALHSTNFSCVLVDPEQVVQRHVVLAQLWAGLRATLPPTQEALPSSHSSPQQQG

B1: SA301a HC-H52D (antibody, name in Kabat numbering, V domains shown)
VH: QVQLQESGPGLVKPSQTLSLTCTVSGYSITSDYNSHWIRQPPGKGLEWIGYIDYSGSTNYNPSLKSRVTISRDTSKNQFSLKLSSVTAADTAVYYCARNYGSIYVNYFDYWGQGTLVTVSS
VL: EIVLTQSPATLSLSPGERATLSCSASSSVSYMYWYQQKPGQAPRPLIYRTSNLASGIPARFSGSGSGTDFTLTISSLEPEDFAVYYCQQYHSYPTFGGGTKVEIK
notes: IgG1 kappa
Kd [1]: 0.35 nM | Kd [2]: 0.91 nM

B2: SA301a light chain variant V29N (antibody, V domains shown)
VH: QVQLQESGPGLVKPSQTLSLTCTVSGYSITSDYNSHWIRQPPGKGLEWIGYIHYSGSTNYNPSLKSRVTISRDTSKNQFSLKLSSVTAADTAVYYCARNYGSIYVNYFDYWGQGTLVTVSS
VL: EIVLTQSPATLSLSPGERATLSCSASSSNSYMYWYQQKPGQAPRPLIYRTSNLASGIPARFSGSGSGTDFTLTISSLEPEDFAVYYCQQYHSYPTFGGGTKVEIK
Kd [3]: 0.44 nM

B3: SA301a light chain variant V29M (antibody, V domains shown)
VH: QVQLQESGPGLVKPSQTLSLTCTVSGYSITSDYNSHWIRQPPGKGLEWIGYIHYSGSTNYNPSLKSRVTISRDTSKNQFSLKLSSVTAADTAVYYCARNYGSIYVNYFDYWGQGTLVTVSS
VL: EIVLTQSPATLSLSPGERATLSCSASSSMSYMYWYQQKPGQAPRPLIYRTSNLASGIPARFSGSGSGTDFTLTISSLEPEDFAVYYCQQYHSYPTFGGGTKVEIK
Kd [3]: 0.35 nM

B4: SA301a light chain variant V29D (antibody, V domains shown)
VH: QVQLQESGPGLVKPSQTLSLTCTVSGYSITSDYNSHWIRQPPGKGLEWIGYIHYSGSTNYNPSLKSRVTISRDTSKNQFSLKLSSVTAADTAVYYCARNYGSIYVNYFDYWGQGTLVTVSS
VL: EIVLTQSPATLSLSPGERATLSCSASSSDSYMYWYQQKPGQAPRPLIYRTSNLASGIPARFSGSGSGTDFTLTISSLEPEDFAVYYCQQYHSYPTFGGGTKVEIK
Kd [3]: 0.43 nM

B5: SA301a light chain variant V29A (antibody, V domains shown)
VH: QVQLQESGPGLVKPSQTLSLTCTVSGYSITSDYNSHWIRQPPGKGLEWIGYIHYSGSTNYNPSLKSRVTISRDTSKNQFSLKLSSVTAADTAVYYCARNYGSIYVNYFDYWGQGTLVTVSS
VL: EIVLTQSPATLSLSPGERATLSCSASSSASYMYWYQQKPGQAPRPLIYRTSNLASGIPARFSGSGSGTDFTLTISSLEPEDFAVYYCQQYHSYPTFGGGTKVEIK
Kd [3]: 0.4 nM

B6: SA301a light chain variant V29Y (antibody, V domains shown)
VH: QVQLQESGPGLVKPSQTLSLTCTVSGYSITSDYNSHWIRQPPGKGLEWIGYIHYSGSTNYNPSLKSRVTISRDTSKNQFSLKLSSVTAADTAVYYCARNYGSIYVNYFDYWGQGTLVTVSS
VL: EIVLTQSPATLSLSPGERATLSCSASSSYSYMYWYQQKPGQAPRPLIYRTSNLASGIPARFSGSGSGTDFTLTISSLEPEDFAVYYCQQYHSYPTFGGGTKVEIK
Kd [3]: 0.4 nM

B7: SA301a light chain variant V29G (antibody, V domains shown)
VH: QVQLQESGPGLVKPSQTLSLTCTVSGYSITSDYNSHWIRQPPGKGLEWIGYIHYSGSTNYNPSLKSRVTISRDTSKNQFSLKLSSVTAADTAVYYCARNYGSIYVNYFDYWGQGTLVTVSS
VL: EIVLTQSPATLSLSPGERATLSCSASSSGSYMYWYQQKPGQAPRPLIYRTSNLASGIPARFSGSGSGTDFTLTISSLEPEDFAVYYCQQYHSYPTFGGGTKVEIK
Kd [3]: 0.41 nM

B8: SA301a HC-I51E (antibody, name in Kabat numbering, V domains shown)
VH: QVQLQESGPGLVKPSQTLSLTCTVSGYSITSDYNSHWIRQPPGKGLEWIGYEHYSGSTNYNPSLKSRVTISRDTSKNQFSLKLSSVTAADTAVYYCARNYGSIYVNYFDYWGQGTLVTVSS
VL: EIVLTQSPATLSLSPGERATLSCSASSSVSYMYWYQQKPGQAPRPLIYRTSNLASGIPARFSGSGSGTDFTLTISSLEPEDFAVYYCQQYHSYPTFGGGTKVEIK
notes: IgG1 kappa
Kd [1]: 1.53 nM | Kd [2]: 0.95 nM

B9: SA301a HC-H52I (antibody, name in Kabat numbering, V domains shown)
VH: QVQLQESGPGLVKPSQTLSLTCTVSGYSITSDYNSHWIRQPPGKGLEWIGYIIYSGSTNYNPSLKSRVTISRDTSKNQFSLKLSSVTAADTAVYYCARNYGSIYVNYFDYWGQGTLVTVSS
VL: EIVLTQSPATLSLSPGERATLSCSASSSVSYMYWYQQKPGQAPRPLIYRTSNLASGIPARFSGSGSGTDFTLTISSLEPEDFAVYYCQQYHSYPTFGGGTKVEIK
notes: IgG1 kappa
Kd [1]: 0.53 nM | Kd [2]: 1.72 nM

B10: SA301a HC-H52G (antibody, name in Kabat numbering, V domains shown)
VH: QVQLQESGPGLVKPSQTLSLTCTVSGYSITSDYNSHWIRQPPGKGLEWIGYIGYSGSTNYNPSLKSRVTISRDTSKNQFSLKLSSVTAADTAVYYCARNYGSIYVNYFDYWGQGTLVTVSS
VL: EIVLTQSPATLSLSPGERATLSCSASSSVSYMYWYQQKPGQAPRPLIYRTSNLASGIPARFSGSGSGTDFTLTISSLEPEDFAVYYCQQYHSYPTFGGGTKVEIK
notes: IgG1 kappa
Kd [1]: 1.68 nM | Kd [2]: 1.66 nM

B11: SA301a HC-H52N (antibody, name in Kabat numbering, V domains shown)
VH: QVQLQESGPGLVKPSQTLSLTCTVSGYSITSDYNSHWIRQPPGKGLEWIGYINYSGSTNYNPSLKSRVTISRDTSKNQFSLKLSSVTAADTAVYYCARNYGSIYVNYFDYWGQGTLVTVSS
VL: EIVLTQSPATLSLSPGERATLSCSASSSVSYMYWYQQKPGQAPRPLIYRTSNLASGIPARFSGSGSGTDFTLTISSLEPEDFAVYYCQQYHSYPTFGGGTKVEIK
notes: IgG1 kappa
Kd [1]: 1.04 nM | Kd [2]: 2.83 nM

B12: SA301a HC-I51F (antibody, name in Kabat numbering, V domains shown)
VH: QVQLQESGPGLVKPSQTLSLTCTVSGYSITSDYNSHWIRQPPGKGLEWIGYFHYSGSTNYNPSLKSRVTISRDTSKNQFSLKLSSVTAADTAVYYCARNYGSIYVNYFDYWGQGTLVTVSS
VL: EIVLTQSPATLSLSPGERATLSCSASSSVSYMYWYQQKPGQAPRPLIYRTSNLASGIPARFSGSGSGTDFTLTISSLEPEDFAVYYCQQYHSYPTFGGGTKVEIK
notes: IgG1 kappa
Kd [1]: 2.38 nM | Kd [2]: 1.55 nM

B13: SA301a HC-H52R (antibody, name in Kabat numbering, V domains shown)
VH: QVQLQESGPGLVKPSQTLSLTCTVSGYSITSDYNSHWIRQPPGKGLEWIGYIRYSGSTNYNPSLKSRVTISRDTSKNQFSLKLSSVTAADTAVYYCARNYGSIYVNYFDYWGQGTLVTVSS
VL: EIVLTQSPATLSLSPGERATLSCSASSSVSYMYWYQQKPGQAPRPLIYRTSNLASGIPARFSGSGSGTDFTLTISSLEPEDFAVYYCQQYHSYPTFGGGTKVEIK
notes: IgG1 kappa
Kd [1]: 1.36 nM | Kd [2]: 1.55 nM

B14: SA301a HC-I51A (antibody, name in Kabat numbering, V domains shown)
VH: QVQLQESGPGLVKPSQTLSLTCTVSGYSITSDYNSHWIRQPPGKGLEWIGYAHYSGSTNYNPSLKSRVTISRDTSKNQFSLKLSSVTAADTAVYYCARNYGSIYVNYFDYWGQGTLVTVSS
VL: EIVLTQSPATLSLSPGERATLSCSASSSVSYMYWYQQKPGQAPRPLIYRTSNLASGIPARFSGSGSGTDFTLTISSLEPEDFAVYYCQQYHSYPTFGGGTKVEIK
notes: IgG1 kappa
Kd [1]: 0.73 nM | Kd [2]: 0.81 nM

B15: SA301a HC-I51G (antibody, name in Kabat numbering, V domains shown)
VH: QVQLQESGPGLVKPSQTLSLTCTVSGYSITSDYNSHWIRQPPGKGLEWIGYGHYSGSTNYNPSLKSRVTISRDTSKNQFSLKLSSVTAADTAVYYCARNYGSIYVNYFDYWGQGTLVTVSS
VL: EIVLTQSPATLSLSPGERATLSCSASSSVSYMYWYQQKPGQAPRPLIYRTSNLASGIPARFSGSGSGTDFTLTISSLEPEDFAVYYCQQYHSYPTFGGGTKVEIK
notes: IgG1 kappa
Kd [1]: 0.92 nM | Kd [2]: 0.87 nM

B16: SA301a HC-I51L (antibody, name in Kabat numbering, V domains shown)
VH: QVQLQESGPGLVKPSQTLSLTCTVSGYSITSDYNSHWIRQPPGKGLEWIGYLHYSGSTNYNPSLKSRVTISRDTSKNQFSLKLSSVTAADTAVYYCARNYGSIYVNYFDYWGQGTLVTVSS
VL: EIVLTQSPATLSLSPGERATLSCSASSSVSYMYWYQQKPGQAPRPLIYRTSNLASGIPARFSGSGSGTDFTLTISSLEPEDFAVYYCQQYHSYPTFGGGTKVEIK
notes: IgG1 kappa
Kd [1]: 0.69 nM | Kd [2]: 0.64 nM

B17: SA301a HC-I51D (antibody, name in Kabat numbering, V domains shown)
VH: QVQLQESGPGLVKPSQTLSLTCTVSGYSITSDYNSHWIRQPPGKGLEWIGYDHYSGSTNYNPSLKSRVTISRDTSKNQFSLKLSSVTAADTAVYYCARNYGSIYVNYFDYWGQGTLVTVSS
VL: EIVLTQSPATLSLSPGERATLSCSASSSVSYMYWYQQKPGQAPRPLIYRTSNLASGIPARFSGSGSGTDFTLTISSLEPEDFAVYYCQQYHSYPTFGGGTKVEIK
notes: IgG1 kappa
Kd [1]: 1.99 nM | Kd [2]: 2.17 nM

B18: SA301a HC-H52V (antibody, name in Kabat numbering, V domains shown)
VH: QVQLQESGPGLVKPSQTLSLTCTVSGYSITSDYNSHWIRQPPGKGLEWIGYIVYSGSTNYNPSLKSRVTISRDTSKNQFSLKLSSVTAADTAVYYCARNYGSIYVNYFDYWGQGTLVTVSS
VL: EIVLTQSPATLSLSPGERATLSCSASSSVSYMYWYQQKPGQAPRPLIYRTSNLASGIPARFSGSGSGTDFTLTISSLEPEDFAVYYCQQYHSYPTFGGGTKVEIK
notes: IgG1 kappa
Kd [1]: 0.34 nM | Kd [2]: 0.88 nM

B19: SA301a HC-I51K (antibody, name in Kabat numbering, V domains shown)
VH: QVQLQESGPGLVKPSQTLSLTCTVSGYSITSDYNSHWIRQPPGKGLEWIGYKHYSGSTNYNPSLKSRVTISRDTSKNQFSLKLSSVTAADTAVYYCARNYGSIYVNYFDYWGQGTLVTVSS
VL: EIVLTQSPATLSLSPGERATLSCSASSSVSYMYWYQQKPGQAPRPLIYRTSNLASGIPARFSGSGSGTDFTLTISSLEPEDFAVYYCQQYHSYPTFGGGTKVEIK
notes: IgG1 kappa
Kd [1]: 0.49 nM | Kd [2]: 0.59 nM

B20: SA301a HC-H52S (antibody, name in Kabat numbering, V domains shown)
VH: QVQLQESGPGLVKPSQTLSLTCTVSGYSITSDYNSHWIRQPPGKGLEWIGYISYSGSTNYNPSLKSRVTISRDTSKNQFSLKLSSVTAADTAVYYCARNYGSIYVNYFDYWGQGTLVTVSS
VL: EIVLTQSPATLSLSPGERATLSCSASSSVSYMYWYQQKPGQAPRPLIYRTSNLASGIPARFSGSGSGTDFTLTISSLEPEDFAVYYCQQYHSYPTFGGGTKVEIK
notes: IgG1 kappa
Kd [1]: 0.63 nM | Kd [2]: 1.16 nM
